1 molecule from article PMC3613824 (Cell Death & Disease, 2013) can be followed below.

In this test the target is MBP-DLC2 (dynein light chain-2 fused to maltose-binding protein) (UniProt Q96FJ2 1-89). The test is described as follows: pull-down.

B1: GST-MVaf1 (myosin-Va medial tail fragment 1, MYO5A 1276-1328 [+B], fused to glutathione-S-transferase) (domain or fragment)
chain: QKEAIQPKDDKNTMTDSTILLEDVQKMKDKGEIAQAYIGLKETNRSSALDYHE
With B1, the binding result was “binds”.
